Starred links: 1 amine or outer side, 2 acyl side, 3 side chain; linkers in the order of their positions; H or OH if unused. Non-standard residues stand in square brackets, D forms with d. Groups on a side chain read outwards from the residue. No end group written: not given here. *: point of attachment. C18 diacid = O=C(O)CCCCCCCCCCCCCCCCC(=O)*; γGlu = O=C(O)[C@H](CCC(=O)[*:2])N[*:1]; AEEA = NCCOCCOCC(=O)O; Aib = CC(C)(N)C(=O)O
T1: NPY2 receptor (human (printed as hNPY2R), UniProt P49146 1-381)
T1 sequence (looked up): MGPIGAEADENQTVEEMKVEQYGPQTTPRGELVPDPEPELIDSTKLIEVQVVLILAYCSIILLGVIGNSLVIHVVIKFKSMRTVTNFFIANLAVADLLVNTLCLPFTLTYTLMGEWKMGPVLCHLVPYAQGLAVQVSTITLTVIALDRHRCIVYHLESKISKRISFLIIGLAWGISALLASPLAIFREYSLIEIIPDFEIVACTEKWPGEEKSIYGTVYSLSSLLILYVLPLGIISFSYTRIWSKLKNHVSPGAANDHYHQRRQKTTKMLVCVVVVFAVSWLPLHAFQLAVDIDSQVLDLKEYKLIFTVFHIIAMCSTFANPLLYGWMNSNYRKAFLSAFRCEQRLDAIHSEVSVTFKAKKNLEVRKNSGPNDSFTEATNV

T2: GIP receptor (human (printed as hGIPR), UniProt P48546 22-466)
T2 sequence (looked up): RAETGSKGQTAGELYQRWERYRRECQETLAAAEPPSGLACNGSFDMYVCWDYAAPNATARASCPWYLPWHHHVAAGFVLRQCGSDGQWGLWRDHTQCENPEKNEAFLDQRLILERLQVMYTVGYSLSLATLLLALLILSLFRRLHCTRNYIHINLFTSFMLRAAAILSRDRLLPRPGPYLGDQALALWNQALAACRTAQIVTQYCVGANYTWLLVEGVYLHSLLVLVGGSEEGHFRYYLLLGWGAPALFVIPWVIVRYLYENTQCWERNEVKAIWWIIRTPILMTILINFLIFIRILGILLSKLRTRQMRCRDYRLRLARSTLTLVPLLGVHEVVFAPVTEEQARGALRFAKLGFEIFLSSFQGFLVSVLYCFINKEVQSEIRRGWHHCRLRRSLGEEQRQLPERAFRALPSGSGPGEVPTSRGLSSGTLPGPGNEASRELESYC


Assays:
Test in all cases: cell-based or functional assay
NPY2 receptor = biological target: T1, NPY2 receptor
GLP-1 receptor = GLP-1 receptor (human (printed as hGLP1R), UniProt P43220 24-463)
GIP receptor = biological target: T2, GIP receptor

EC50 hNPY2R 0.5% hP (CreLuc) (NPY2 receptor) | EC50 hNPY2R 100% hP (CreLuc) (NPY2 receptor) | EC50 hGLP1R 0.5% hP (CreLuc) (GLP-1 receptor) | EC50 hGLP1R 100% hP (CreLuc) (GLP-1 receptor) | EC50 hGIPR 0.5% hP (CreLuc) (GIP receptor) | EC50 hGIPR 100% hP (CreLuc) (GIP receptor) | Binder
14.5 nM | 33.5 nM | 0.1 nM | 2.59 nM | 0.29 nM | 1.25 nM | Y[Aib]EGTFTSDYSI[Aib]LEKQAQ[Aib]AFVQWLIK([γGlu-γGlu-γGlu-γGlu-γGlu-γGlu-C18 diacid])GGPSEGASLRHYYNWLTRQRY-NH2 (also: TFA salt) [Compound 252]
20.6 nM | 48.7 nM | 0.49 nM | 7.16 nM | 0.16 nM | 0.98 nM | Y[Aib]EGTFTSDYSI[Aib]LEKQAE[Aib]AFVEWLIK([AEEA-AEEA-γGlu-γGlu-γGlu-γGlu-C18 diacid])GGPSEGASLRHYYNWLTRQRY-NH2 (also: TFA salt) [Compound 251]
12.2 nM | 37.4 nM | 0.08 nM | 2.03 nM | 0.2 nM | 1.25 nM | YXEGTFTSDYSIXLEKQAQXAFVQWLIKGGPSEGASLRHYYNWLTRQRY (Aib at 2, 13, 20; K28 side chain carries C18DA-gGlu-gGlu-gGlu-gGlu-gGlu; C-terminal amide) [Compound 250]
13.4 nM | 39.3 nM | 0.08 nM | 0.74 nM | 0.24 nM | 0.64 nM | YXEGTFTSDYSIXLEKQAQXAFVEWLIKGGPSSGASLRHYYNWLTRQRY (Aib at 2, 13, 20; K28 side chain carries C18DA-gGlu-gGlu-gGlu-gGlu-gGlu; C-terminal amide) [Compound 253]
16.9 nM | 96.3 nM | 0.08 nM | 2.48 nM | 0.14 nM | 1.48 nM | YXEGTFTSDYSIXLEKQAQXAFVQWLIKGGPSEGASLRHYYNWLTRQRY (Aib at 2, 13, 20; K28 side chain carries C18DA-E-E-E-E-E (SEQ ID NO: 636); C-terminal amide) [Compound 257]
17.3 nM | 40.9 nM | 0.34 nM | 7.31 nM | 0.46 nM | 1.23 nM | YXEGTFTSDYSIXLEKQAQXEFVEWLIKGGPSEGASLRHYYNWLTRQRY (Aib at 2, 13, 20; K28 side chain carries C18DA-gGlu-gGlu-gGlu-gGlu-gGlu-gGlu-eLys; C-terminal amide) [Compound 255]
10.9 nM | 27 nM | 0.18 nM | 4.59 nM | 0.23 nM | 1.56 nM | Y[Aib]EGTFTSDYSI[Aib]LEKQAQ[Aib]AFVEWLIK([AEEA-AEEA-γGlu-γGlu-γGlu-γGlu-C18 diacid])GGPSEPASLRHYYNWLTRQRY-NH2 (also: TFA salt) [Compound 256]
17.8 nM | 30.9 nM | 0.07 nM | 1.69 nM | 0.22 nM | 0.63 nM | Y[Aib]EGTFTSDYSI[Aib]LEKQAQ[Aib]AFVEWLIK([AEEA-AEEA-γGlu-γGlu-γGlu-γGlu-C18 diacid])GGPSSGASLRHYYNWLTRQRY-NH2 (also: TFA salt) [Compound 254]

Source: patent US20240247080A1, “GLP1/GIP/NPY2 RECEPTOR TRIPLE AGONISTS” (Boehringer Ingelheim International GmbH, priority 2022, published 2024)
